Experiment [1] has as its target T1, CD24, membrane-associated, on human cells (Homo sapiens, UniProt P25063).
T1 chain: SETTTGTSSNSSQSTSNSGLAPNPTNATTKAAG
The experiment is described as follows: flow cytometry on cells. (In general: A flow cytometer gives signals particle by particle.)

In another experiment the target is T2, His-tagged CD24 antigen (Homo sapiens (species assumed), UniProt P25063).
T2 chain: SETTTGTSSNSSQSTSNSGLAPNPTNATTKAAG
Description: ELISA. Background: ELISA stands for enzyme-linked immunosorbent assay.

B1: PPAB001, bispecific antibody fusion protein against CD47 and CD24 (bispecific antibody, V domains shown)
VH: VKLVESGGGLVQPGGSLKLSCAASGDSVTSKSMSWVRQAPSGGLQWIGRTYPDNGDSSYTPSVRSRFIISRDNAKNTLYLQMRKVRSEDTGFYYCARQGDYWGQGTTLTVSS
VL: DVVMTQTPLTLSLSPGQPASISCKSSQSGSIGRAKTYLNWYQQRPGQAPKLLIYDASKLDSGVPDRFTGSGSGTDFTLKISRVEAEDLGVYYCWQGTHFPYTFGGGTKLEIK
B1: the binding result (in experiment [1]; with His-tagged CD24 antigen) was “binds” throughout.

B2: humanized anti-CD24 antibody with common light chain (antibody, V domains shown)
VH: VKLVESGGGLVQPGGSLKLSCAASGDSVTSKSMSWVRQAPSGGLQWIGRTYPDNGDSSYTPSVRSRFIISRDNAKNTLYLQMRKVRSEDTGFYYCARQGDYWGQGTTLTVSS
VL: DVVMTQTPLTLSLSPGQPASISCKSSQSGSIGRAKTYLNWYQQRPGQAPKLLIYDASKLDSGVPDRFTGSGSGTDFTLKISRVEAEDLGVYYCWQGTHFPYTFGGGTKLEIK
Consider B2, for which the binding result in experiment [1] is on record as “binds”.

For the origin of these results see publication PMC10689933 (Molecular Therapy Oncolytics, 2023).
